Residue numbers refer to the chain shown, from its start. Values belong to the binder of their own block, whether it stands above or below them.
Experiments:
cSNK:BSA conjugate [1] = molecular target: T1, cSNK:BSA conjugate (bovine, head-to-tail cyclized; conjugated to BSA carrier); assay: BLI (Octet), compared to hu5E3
T1 construct: also called BSA-cSNK

cSNK:BSA conjugate [2] = molecular target: T1, cSNK:BSA conjugate; assay: BLI (Octet), 1:1 model, BSA-cSNK
Procedure: Biolayer interferometry (Octet Red92, ForteBio) was used to qualitatively/quantitatively assess the interactions between humanized 5E3 and Δ5E3 mAbs to the cSNK:BSA conjugate. […] MAbs were loaded onto sensors and then washed in PBST. Each sensor was associated with one of several cSNK:BSA standards (100 nM to 0 nM) and then washed in PBST. Data was processed statistically using ForteBio Data Analysis software to determine the strength of antigen-antibody binding (KD). For each mAb analyzed, a 1:1 model provided the “best fit”.

cSNK:BSA conjugate [3] = molecular target: T1, cSNK:BSA conjugate; assay: BLI 2:1 fit, column KD; 12.5 nM row
Procedure: (§1) Biolayer interferometry (Octet […], ForteBio) was used to qualitatively/quantitatively assess the interactions between humanized versions of 5E3 and cSNK:BSA conjugate. […] MAbs were loaded onto sensors and then washed in PBST. Each sensor was associated with one of several cSNK:BSA standards (100 nM to 0 nM) and then washed in PBST. Data was processed statistically using ForteBio Data Analysis software to determine the strength of antigen-antibody binding (KD). For each mAb analyzed, a 2:1 model provided the “best fit”.

cSNK:BSA conjugate [4] = molecular target: T1, cSNK:BSA conjugate; assay: BLI 2:1 fit, column kon; 50 nM row
Procedure: as §1

cSNK:BSA conjugate [5] = molecular target: T1, cSNK:BSA conjugate; assay: BLI 2:1 fit, column KD2; 25 nM row
Procedure: as §1

cSNK:BSA conjugate [6] = molecular target: T1, cSNK:BSA conjugate; assay: BLI 2:1 fit, column kon2; 25 nM row
Procedure: as §1

cSNK:BSA conjugate [7] = molecular target: T1, cSNK:BSA conjugate; assay: BLI (Octet RED96), 2:1 kinetics, KD2, summary table
Procedure: as §1
(§2) Table 7 summarizes the affinity constants of humanized 5E3 IgG1, IgG2 and IgG4 constructs. The KD ranges were determined using 2:1 kinetics of binding of analyte (BSA-cSNK) in solution to two different binding sites on the surface (immobilized bivalent, monospecific 5E3) in comparison to murine 5E3 using biolayer interferometry (Octet RED96).

cSNK:BSA conjugate [8] = molecular target: T1, cSNK:BSA conjugate; assay: BLI 2:1 fit, column KD; 100 nM row; 100 nM row, column KD (site with kon 4.16E+06, kdis 3.38E-02)
Procedure: as §1

cSNK:BSA conjugate [9] = molecular target: T1, cSNK:BSA conjugate; assay: BLI 2:1 fit, column kon2; 6.25 nM row
Procedure: as §1

cSNK:BSA conjugate [10] = molecular target: T1, cSNK:BSA conjugate; assay: BLI 2:1 fit, column KD2; 100 nM row
Procedure: as §1

cSNK:BSA conjugate [11] = molecular target: T1, cSNK:BSA conjugate; assay: BLI 2:1 fit, column kon2; 100 nM row
Procedure: as §1

cSNK:BSA conjugate [12] = molecular target: T1, cSNK:BSA conjugate; assay: BLI 2:1 fit, column KD; 50 nM row
Procedure: as §1

cSNK:BSA conjugate [13] = molecular target: T1, cSNK:BSA conjugate; assay: BLI 2:1 fit, column kdis; 50 nM row
Procedure: as §1

cSNK:BSA conjugate [14] = molecular target: T1, cSNK:BSA conjugate; assay: BLI 2:1 fit, column KD2; 6.25 nM row
Procedure: as §1

cSNK:BSA conjugate [15] = molecular target: T1, cSNK:BSA conjugate; assay: BLI 2:1 fit, column KD; 25 nM row
Procedure: as §1

cSNK:BSA conjugate [16] = molecular target: T1, cSNK:BSA conjugate; assay: BLI 2:1 fit, column kon; 100 nM row
Procedure: as §1

cSNK:BSA conjugate [17] = molecular target: T1, cSNK:BSA conjugate; assay: BLI 2:1 fit, column KD; 6.25 nM row
Procedure: as §1

cSNK:BSA conjugate [18] = molecular target: T1, cSNK:BSA conjugate; assay: BLI 2:1 fit, column kon2; 50 nM row
Procedure: as §1

cSNK:BSA conjugate [19] = molecular target: T1, cSNK:BSA conjugate; assay: BLI 2:1 fit, column kdis2; 100 nM row
Procedure: as §1

cSNK:BSA conjugate [20] = molecular target: T1, cSNK:BSA conjugate; assay: BLI 2:1 fit, column kdis2; 6.25 nM row
Procedure: as §1

cSNK:BSA conjugate [21] = molecular target: T1, cSNK:BSA conjugate; assay: BLI 2:1 fit, column kon; 12.5 nM row
Procedure: as §1

cSNK:BSA conjugate [22] = molecular target: T1, cSNK:BSA conjugate; assay: BLI 2:1 fit, column kdis2; 50 nM row
Procedure: as §1

cSNK:BSA conjugate [23] = molecular target: T1, cSNK:BSA conjugate; assay: BLI 2:1 fit, column kdis; 12.5 nM row
Procedure: as §1

cSNK:BSA conjugate [24] = molecular target: T1, cSNK:BSA conjugate; assay: BLI 2:1 fit, column KD2; 50 nM row
Procedure: as §1

cSNK:BSA conjugate [25] = molecular target: T1, cSNK:BSA conjugate; assay: BLI 2:1 fit, column kon2; 12.5 nM row
Procedure: as §1

cSNK:BSA conjugate [26] = molecular target: T1, cSNK:BSA conjugate; assay: BLI 2:1 fit, column kdis2; 25 nM row
Procedure: as §1

cSNK:BSA conjugate [27] = molecular target: T1, cSNK:BSA conjugate; assay: BLI 2:1 fit, column kon; 25 nM row
Procedure: as §1

cSNK:BSA conjugate [28] = molecular target: T1, cSNK:BSA conjugate; assay: BLI 2:1 fit, column kdis; 6.25 nM row
Procedure: as §1

cSNK:BSA conjugate [29] = molecular target: T1, cSNK:BSA conjugate; assay: BLI 2:1 fit, column kon; 6.25 nM row
Procedure: as §1

cSNK:BSA conjugate [30] = molecular target: T1, cSNK:BSA conjugate; assay: BLI 2:1 fit, column kdis; 100 nM row
Procedure: as §1

cSNK:BSA conjugate [31] = molecular target: T1, cSNK:BSA conjugate; assay: BLI 2:1 fit, column KD2; 12.5 nM row
Procedure: as §1

cSNK:BSA conjugate [32] = molecular target: T1, cSNK:BSA conjugate; assay: BLI (Octet RED96), 2:1 kinetics, KD1, summary table
Procedure: as §1, §2

cSNK:BSA conjugate [33] = molecular target: T1, cSNK:BSA conjugate; assay: BLI 2:1 fit, column kdis; 25 nM row
Procedure: as §1

cSNK:BSA conjugate [34] = molecular target: T1, cSNK:BSA conjugate; assay: BLI 2:1 fit, column kdis2; 12.5 nM row
Procedure: as §1

T1 sequence (P02769 25-607 limits assumed): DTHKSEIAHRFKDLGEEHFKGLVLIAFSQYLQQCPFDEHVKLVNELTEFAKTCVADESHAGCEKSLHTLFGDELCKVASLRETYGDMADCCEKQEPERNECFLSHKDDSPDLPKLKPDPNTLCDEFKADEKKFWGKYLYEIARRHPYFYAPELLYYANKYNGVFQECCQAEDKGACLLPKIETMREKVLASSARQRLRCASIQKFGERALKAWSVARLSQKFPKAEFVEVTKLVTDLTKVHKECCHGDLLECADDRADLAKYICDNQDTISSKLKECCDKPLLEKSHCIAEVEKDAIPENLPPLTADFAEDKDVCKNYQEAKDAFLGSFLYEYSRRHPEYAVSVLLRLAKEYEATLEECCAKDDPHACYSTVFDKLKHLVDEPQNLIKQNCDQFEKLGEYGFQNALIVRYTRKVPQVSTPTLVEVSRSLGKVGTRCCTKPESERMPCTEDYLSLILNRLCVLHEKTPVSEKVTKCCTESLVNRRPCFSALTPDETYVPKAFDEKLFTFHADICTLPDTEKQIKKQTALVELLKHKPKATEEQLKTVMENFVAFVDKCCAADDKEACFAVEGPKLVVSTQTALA

binding result (cSNK:BSA conjugate [1]): no binding (tested: 100 nM)
B1: 5E3KCDR3-Y91F (antibody, IgG1, V domains shown)
VH: QVQLQQSGPEVKKPGASVKISCKASGYIFTSYYIQWVIHAPGQGLEWIGWIYPGNVNTKYNEKFKGKATLTADKSSSTAYMELSSLTSEDTAVYFCARMDYEAHYWGQGTTVTVSS
VL: DIQMTQSPSSLSASVGDRVTITCRASQEISGYLTWLQQKPEGAIKRLIYAASTLDSGVPKRFSGSRSGSDYSLTISSLQPEDFATYNCLQFANYPRTFGGGTKLEIK
notes: hu5E3 IgG1 vector mutant

binding result (cSNK:BSA conjugate [1]): no binding (tested: 100 nM)
B2: 5E3KCDR3-Y94F (antibody, IgG1, V domains shown)
VH: B1 VH
VL: B1 VL with F91Y, Y94F
notes: hu5E3 IgG1 vector mutant

Kd (cSNK:BSA conjugate [2]): 1.26 nM
B3: HuΔ5E3-IgG1 (IQR) (antibody, V domains shown)
VH: B1 VH with H39Q, A40R
VL: B1 VL with F91Y
notes: human IgG1; also called huΔ5E3 IQR Mutation

Kd (cSNK:BSA conjugate [2]): 1.28 nM
B4: HuΔ5E3-IgG1 (KQA) (antibody, V domains shown)
VH: B1 VH with I38K, H39Q
VL: B1 VL with F91Y
notes: human IgG1; also called huΔ5E3 KQA Mutation

Kd (cSNK:BSA conjugate [2]): 1.52 nM
B5: HuΔ5E3-IgG1 (KHA) (antibody, V domains shown)
VH: B1 VH with I38K
VL: B1 VL with F91Y
notes: human IgG1; also called huΔ5E3 KHA Mutation

Kd (cSNK:BSA conjugate [2]): 1.88 nM
B6: HuΔ5E3-IgG1 (KQR) (antibody, V domains shown)
VH: B1 VH with I38K, H39Q, A40R
VL: B1 VL with F91Y
notes: human IgG1; also called hu5E3 IgG1 KQR; huΔ5E3 KQR Mutation

Kd (cSNK:BSA conjugate [2]): 0.226 nM
B7: HuΔ5E3-IgG2 (KQR) (antibody, V domains shown)
VH: B1 VH with I38K, H39Q, A40R
VL: B1 VL with F91Y
notes: KQR framework 2 variant of hu5E3 on human IgG2

Kd (cSNK:BSA conjugate [2]): 1.43 nM
B8: HuΔ5E3-IgG1 (IHR) (antibody, V domains shown)
VH: B1 VH with A40R
VL: B1 VL with F91Y
notes: human IgG1; also called huΔ5E3 IHR Mutation

Kd (cSNK:BSA conjugate [3]): 1.28 nM
kon (cSNK:BSA conjugate [4]): 4.16e+06 M⁻¹ s⁻¹
Kd (cSNK:BSA conjugate [5]): 8.14 nM
kon (cSNK:BSA conjugate [6]): 4.16e+06 M⁻¹ s⁻¹
Kd (cSNK:BSA conjugate [7]): 1.28 nM
Kd (cSNK:BSA conjugate [8]): 8.14 nM
kon (cSNK:BSA conjugate [9]): 4.16e+06 M⁻¹ s⁻¹
Kd (cSNK:BSA conjugate [10]): 1.28 nM
kon (cSNK:BSA conjugate [11]): 698000 M⁻¹ s⁻¹
Kd (cSNK:BSA conjugate [12]): 8.14 nM
koff (cSNK:BSA conjugate [13]): 0.0338 s⁻¹
Kd (cSNK:BSA conjugate [14]): 8.14 nM
Kd (cSNK:BSA conjugate [15]): 1.28 nM
kon (cSNK:BSA conjugate [16]): 4.16e+06 M⁻¹ s⁻¹
Kd (cSNK:BSA conjugate [17]): 1.28 nM
kon (cSNK:BSA conjugate [18]): 698000 M⁻¹ s⁻¹
koff (cSNK:BSA conjugate [19]): 0.00089 s⁻¹
koff (cSNK:BSA conjugate [20]): 0.0338 s⁻¹
kon (cSNK:BSA conjugate [21]): 698000 M⁻¹ s⁻¹
koff (cSNK:BSA conjugate [22]): 0.00089 s⁻¹
koff (cSNK:BSA conjugate [23]): 0.00089 s⁻¹
Kd (cSNK:BSA conjugate [24]): 1.28 nM
kon (cSNK:BSA conjugate [25]): 4.16e+06 M⁻¹ s⁻¹
koff (cSNK:BSA conjugate [26]): 0.0338 s⁻¹
kon (cSNK:BSA conjugate [27]): 698000 M⁻¹ s⁻¹
koff (cSNK:BSA conjugate [28]): 0.00089 s⁻¹
kon (cSNK:BSA conjugate [29]): 698000 M⁻¹ s⁻¹
koff (cSNK:BSA conjugate [30]): 0.0338 s⁻¹
Kd (cSNK:BSA conjugate [31]): 8.14 nM
Kd (cSNK:BSA conjugate [32]): 8.14 nM
koff (cSNK:BSA conjugate [33]): 0.00089 s⁻¹
koff (cSNK:BSA conjugate [34]): 0.0338 s⁻¹
B9: rehu5E3-IgG2 (antibody, V domains shown)
VH: B1 VH with K12V, T87R, T91S, T111L
VL: B1 VL with V15L, I21L, G42K, S72T, T85D, F91Y
notes: human IgG2/kappa

Kd (cSNK:BSA conjugate [2]): 1.04 nM
B10: HuΔ5E3-IgG4 (KQR) (antibody, V domains shown)
VH: B1 VH with I38K, H39Q, A40R
VL: B1 VL with F91Y
notes: KQR framework 2 variant of hu5E3 on human IgG4

Reference: patent publication US20170008955A1 (CNJ, published 2017)
